Experimental data published in the domain aggregation screens of Martell et al. (2025).

Assay: soluble fraction after stress (log2 fold change); higher = more stays soluble; pooled small domains, quantitative proteomics
Conditions: stress: 50 degC
Method in brief: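 Each library was heated to 50°C as a stress step. The libraries, made up of small protein domains, were pooled and analysed at high throughput by quantitative proteomics. The reported value is the base-two logarithm of the fold change in each protein's soluble amount after stress, taken as a measure of aggregation propensity. The higher the value, the more protein stays in solution.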

| Sequence | soluble fraction (log2) |
| --- | --- |
| HMEQSGDELKTWVDQAIAAYPEKVKEYQQGKKGLLALFIGEVMKRSKGTADPKKVNQLVTEALS | 0.045 |
| HMSNMESLIGREATVIEMIPAEDVGRVKIDGDEWQAVLAREDDNEPRRDIQVGEKVIIVSYDSIILTVKTK | 0.0115 |
| HMPQIDLYPFEVRIEQDNNAAEYAVRFLDVPNIIGSGASIDEAIVEARGNLKEYLDYLIDTNRDIPLPS | -0.412 |
| HMIIMVNLYQIWDKEVQGLDSVGAKPEQIEARRQAIAAHFESKARQAGMSSKDIYATLDNFDTYSRQKTS | -2.28 |
| HMGDGYTYYYDDTVLALGFTKIGNDYYIFNTFSGKMYKDATMWVNDNPYGIKGGMHYFDASGKMFV | 0.128 |
| HMSRARSRQTSMLEAVAGLGPARRRALLKQFGGLQGVLRAGIEDLSRAPGIGPALAQAIFEHLHPGA | -0.466 |
| HMTVDAVALGRRVRHLRKQAGLTLDQLAERTGVSGSHLSLVENARREPRLSLVQRIAEVLGVPVEDL | -1.17 |
| HMVGNEEALRAIVESIIAQNTTEVASFREGKEGLIGWFLGQVMRQTGGKADPKLARQILLELLKQ | -0.242 |
| HMGKSDDSLAAEKFIQHVRKNGELSYEQAYRMVHAYFPDFRNFEGMVSGAVKSGYLILIQKSTGLFLRAKE | -0.882 |
| HMTNALDMMKTMDSDAYTKYQKISKESSNEDRQLNELKYITNWYAGAVKKNPSMVDDYEKQKEADS | 0.159 |
| HMVELGMSQNEFIQKFGKPFNKEMAYTYDKHKRETLFYKEDLYRGSWFIVTTAFTFVDSKLVSQEIVREER | -3.41 |
| HMKDITPASEDQLKAITDLMLKVNGEWSDAFFTFISKKFNHQISSPEQLTTFEANTIIDMLRKKAEG | 0.192 |
| HMTSLTSDEEQIINVLRAEESVYINALATKSKIPLQKLLGLLIQLEFKGLIHSLPGSHYKIV | -0.138 |
| HMDIAATTVKQKIRTLLADEDAARPLSDQKIADALAEDGIDVARRTVAKYREELGIEPSWARKR | 0.0398 |
| HMNDYIGVDRAKEIALNHARMNESDVQFAKAKLENDDGVVEYEIEFYFGRTEYDYTIDAVSGNIIEYDVEY | -1.05 |
| HMNNPISMQKLRQVIRLYGQGKGTKSINSMLGVSRNTIKKYLQVYHSSGINYESFLAMSDKELSAVFLV | -0.398 |
| HMSERQTGTVKWFNNAKGFGFITMADRPDDIFVHFRAIQGDGYRSLNEGEEVEFSLVEGPKGLQAEEVTK | 0.037 |
| HMQSLIVPVPKPEDDPVYKDGIKQDPVEVVSIWLGRDYLNMILNLKVSTGKGHTFGIVEDVS | 0.0321 |
| HMETKPTELMLDVHKLRIGMFVYLDLGWMDHPFPLNRFKISTNAQIEQIKGLRLKQVKVMTALSDPASLL | -3.19 |
| HMLDTPLTARELDVLYLMRQRMSAKEIAKQLGIATMTVNRHAANLYRKLGVNTRWDAVYRAEEVGILPP | -0.992 |
| HMSSRLEIEITSKIDDLSHTWRAVGAKQPKGNIKSSLLPSGVKVGETFRVEADFLLDGIEIVSVLPP | -1.44 |
| HMPTGRVVIPLNRLTASDVARILDEAYGRDHNFEVVKPSRLAKGIIVIGPKSEIDGIKELLAH | -0.535 |
| HMTKRKNTEFRQQQIIEAAAKLIFKYGSEHLTVKRIAAQVGISEAAIYRHFTSKKSILSFLLSHIEE | -0.423 |

| Sequence | soluble fraction (log2) |
| --- | --- |
| HMYTDGVPALTDLKKESKPGRRQYVGVEDIPKVLGGLGITILSTSKGLMSGHQAKKKNIGGELIASV | 0.258 |
| HMEVKEVDYSAFMTMTEENSISKVEIEENQILFKKKGDDQTTYKTARMDDPALITRLHDQGVDFTGQ | 0.0677 |
| HMLINFPNKLKRLRLANNLTQQELANILETTKQAVSSYESGKSTPSLNSLIKLSEHFNISLDSLVFD | 0.183 |
| HMAEKRTAIITTARADIRQKPEATAPLAFEAVKDVVLELTDKPADGWVRVKHRDGSTGYIRINQI | 0.0711 |
| HMTPAKQVSAKAERWIDQLGSSDWEKREEAAAELKKLGGAAKSALEKALKNADPEVASKAEELLEALES | 0.0311 |
| HMSIQREIILEVIKNNRTHPTAEEIYILVTKKEPKISRSTVYRNINILVEKGIIEKITIATGPDRYDY | -1.4 |
| HMSETVYQYVARQLRDMLGSGEIPVGQQLPTYRELAKRFQVSLSVIQRAMRQLKAEAVVSIAHGQGVKAVR | -0.42 |
| HMNQKTQMTKQILAESLKKLMLHHSFEKITIKDITDAAGFIRPTFYNHFKDKYDLVEWIFTEEI | -0.364 |
| HMEDLGYVKVASQTAAIRKSAAVQAGQIGTVHEGETYRYLGEEEGWYLVEYNGQKAYISWDDGEL | -0.119 |
| HMKHTVSVDRLQPGVFVSLGGLSWLDHPFLLNRFRLTDHDQIKVLRSLGVKEIEWDPTRSTAQPLPE | -0.437 |
| HMGLIDNLTRIMEKKNISAYQLEKAGIVKQTTFTSWKKGTQPALDKIIKIMQYIEVTPNELFGY | -1.39 |
| HMSGPFTELTPREREILSHLAEGQSNKVIARHLQISDGTVKLHVKAILRKLEVHSRVEAAVMAVEHGV | -1.96 |
| HMKHMTMYEAAKIAKEVGAPKLWLTHYSPSMTRPEEFMDDVRKIFPAAYAAKDGWTMELNFDEG | -0.493 |
| HMSNFGERLRALRQDRQMTLQQASKVTGVAQSTLSKMENNQLSPTFNLMQKLAIGLGIDMPQLFAPVK | -0.108 |
| HMPDPVHAAYLRLAVLLTEQAIGPQVTEQQIRDRFALTRRQTSDLMGRLIREGIAEKRAGYGWNINTELTA | -0.845 |
| HMIDIDNLEKAAILLLSMGTEAAAKVMQKLSRDEVQRLISKMASLSGVSSIEAKWTLQQFFNQYREQSG | -0.638 |
| HMGEPLSPDARALTNVLRHYRGWAEPGELARKSGLGSRERVLTAAQSLVNAGLADIERGMVRPTAALMEVQ | 0.0805 |
| HMIINFDAIRLTTELNKYNRHKAIPNSFFDGTFTILDVRDLYDSLSPKVQKIADTLIEQYNVDVKQ | -1.85 |
| HMASQEESVATYIQDYYRNPKTGESMVSDDMVEEFYKTHPEWEDQADGSKEGMEAVLDNFNEFFEINYG | 0.0827 |
| HMNDLIFSTLAEYDRDTITEIISVVDNTRGIGYEVELVRKDLIAMAAQAEARRDYLPSVIGDVEVFKRNLL | 0.0286 |
| HMGSLKISNPVKDTLWIQGVDGLKSIEIYSSTGQLVKTILGNQGDVSSLPKGVYFLKINTPSESLTAKIIK | -0.0698 |
| HMDAYSYFIRTYPLVDDPLIGDIRRIFAETHDGNPAGDADVRHILWRLLFERELYPTLDEATADWY | -2.54 |
| HMTNIDIEKSIKNTITANYDDVLNYHNEDDNKTFASGDSRYSFDYDEKTKTLIVFTNSKVDAVFVDGIKKK | -0.0966 |

| Sequence | soluble fraction (log2) |
| --- | --- |
| HMASPKEALWRSLAEEPDTWWDNRERKSQPGANPRSPDFKHKESGEALWIESRDTPTWVLETL | 0.1 |
| HMPGVLEVDTGGVAAVAYVDGVEVGRVPGELQIAAGTKTLMLKADRYLDYVQSLEIDGLGKRQLLVATLQS | -0.25 |
| HMEDPFLWVEKLGSSDWIEREESAEKLLEAGEASVEALRTALTHPDLEVRERVRELLSVISPL | -0.104 |
| HMSDYYEVLGVTRQADAEEIKRAYRRKARQLHPDVAGPGHEEEFKEVTVAYEVLSDPEKRQAYDLGGQDAL | 0.179 |
| HMGARWPIQDRPLTATEAAAVRRMYAGGLPHGRSKNSVITEVWGDLSNKPKRLDWLNQALEGGA | 0.184 |
| HMGPLSDRSVADWLLRLGLADTANNRLLLQVMHAAGLPLERTAVRAMRETAAGRPEGTDAREWLQAAAAAQ | -0.208 |
| HMDEWFPVNDDYKFMVGDEVRTPDGLVKVVATHNDSATFYGKIITPIHDDVLKGETYEYRSYEAQVLA | -0.425 |
| HMNLGNLAYESKVTKQVLNMIRPLHPEYSSDDITRAVKEILSEEGSRQRRVDEIARGALDVLMGNPR | 0.216 |
| HMGIVAPGTLKHLHAVGNSYYPDWETKRHELVTAVTKGRTSSSKELYEAEANRLITRIEELLMTAAQSV | -0.0132 |
| HMQSNDTAEIEAVVKEIMAANERVVNDYRSGNTKVVSFFVGQVMKATKGKANPKVVNEVLAKLLK | 0.0929 |
| HMSEIKDRLREARRNKGLSQAGLSKLLGVSQASIAAIESGRNKRPTNLVSIAKALDVSPYWLETGK | -0.124 |
| HMPANVELLRTFTNKTGTKIKARIVAVSDNKVKLIRDDSKKFIVPIDSLSEEDQKYLKDWIANEVGEQ | 0.0498 |
| HMRTITYSITPAHAGMSVERYLKQQHGYSTRTLVKLKHYPQGLQLNGQHARTVDLLQAGDTLAVTFLD | -0.552 |
| HMEFNQAVQDVNELSMQYAKSDVLWPEFEPKVLAFAKNELSQMPPNQWKFALQTFYNGLKQAA | -0.352 |
| HMVNFKLIGNKIAEARKKVNISQAQLAQRLFISSQAVGKWERGESMPDIITFNRLAEILGVDLNYFSE | 0.0107 |
| HMTNKYSSLVIGTVKTIMEEDQYKNLMGPPLKKEIIKQVDKFTNALPIEFDQNDKDFYVKKILINL | -0.304 |
| HMIKILGSAYRHGLDDDDILRAWNYHIQEFFEGEDPEKIVRLGFDTHGRLLEIGGEIYPGGGEKIFHAM | -0.729 |
| HMEESEMIAFATVAHRIVGKPVEAVMRSYRNRDNIPADIAAIVSSKFTFSVTMAEASYRNPKKSYQVNSII | -0.00943 |
| HMLTNNYKNDKALRFAKNHGIHESNILKLVSLYENAPEKGFNAQSIAELLGITPRSASRILVKLLQHNLIR | -1.42 |
| HMDFGHWAAHKLEQMSEYRLRHGEAVAIGIALDVLYSVRQGLLARPAAERILSLLERLGFTLFDPELKS | -0.213 |
| HMTMLLEYNVSRSSKWMNKTIMDAEIPDDILIVMIKRNGQVIVPKGSTEILENDILVLSGNNLNEVALG | -2.33 |
| HMWPTPRTWSALMNELNLYKENHGYANIVDIPSEKIRRMADGIIGEDMAVRYVAFLQSHASS | -1.6 |
